The values that follow come from patent US20220275046A1 (published 2022).

The target in the assay is T1, MAGE-A2 peptide on HLA-DPA1*01:03 / HLA-DPB1*04:01 (human).
T1 peptide: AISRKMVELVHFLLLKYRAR
As to the kind of experiment: multimer staining.

B1: 06-MAGE-A2108-127 TCR (TCR, V domains shown)
Valpha: QKVTQAQTEISVVEKEDVTLDCVYETRDTTYYLFWYKQPPSGELVFLIRRNSFDEQNEISGRYSWNFQKSTSSFNFTITASQVVDSAVYFCALSVGTYKYIFGTGTRLKVLA
Vbeta: DTGVSQNPRHKITKRGQNVTFRCDPISEHNRLYWYRQTLGQGPEFLTYFQNEAQLEKSRLLSDRFSAERPKGSFSTLEIQRTEQGDSAMYLCASSPGTGGRETQYFGPGTRLLVL
With B1, the binding result is “recognises”.
